{
  "source": "paper doi:10.1101/2025.11.07.687288",
  "key": {"[1]": {"target": "E-cadherin V81D L175D, as the Dimerization Activated TurboID pair (Δ-DAT: ΔEcadN and ΔEcadC)", "test": "split reporter"}, "[2]": {"target": "E-cadherin V81D L175D, as the Dimerization Activated TurboID pair (Δ-DAT: ΔEcadN and ΔEcadC)", "test": "split reporter", "remark": "listed apart in the source"}},
  "note": "Read-outs that look alike come from different tables or passages of the source.",
  "data": [
    {"substance": "E-cadherin V81D L175D, as the Dimerization Activated TurboID pair (Δ-DAT: ΔEcadN and ΔEcadC) (receptor)", "values": [
      {"measurement": "biotinylation relative to WT-DAT, normalized for expression", "setting": "[1]", "value": 38.7, "unit": "%"},
      {"measurement": "biotinylation relative to WT-DAT, normalized for expression", "setting": "[2]", "value": 59, "unit": "%"}
    ]}
  ]
}
